These results are taken from patent US12012599B2, “Compositions and methods for modulating left-right differentiation factor (LEFTY) and bone morphogenic factor (BMP)” (CZ Biohub SF LLC, priority 2018, dated 2024).

Test [1] relates to pSMAD2. The experiment in a line: Immunofluorescent pSMAD2 positive cells in mammary glands exposed to ligand-secreting fibroblasts. Format: in vivo, mouse. The following applies: basal and luminal compartments. As for the experimental part:
(§1) FIGS. 4A-4I. LEFTY1 inhibits the phosphorylation of SMAD2 and SMAD5 in basal mammary epithelial cells. FIGS. 4A-4C show exemplary quantification of pSMAD2 and pSMAD5 positive cells within the luminal and basal cells of mammary glands isolated from mice that were injected with control or LEFTY1-secreting L1 fibroblasts. Immunofluorescent detection of pSMAD2 or pSMAD5 proteins was used to visualize positive cells. KRT8 and SMA were used to determine the luminal or basal cells, respectively. […] Immunofluorescent detection of pSMAD2 or pSMAD5 proteins was used to visualize positive cells. KRT8 and SMA were used to determine the luminal or basal cells, respectively. FIGS. 4H-4I show representative images of the quantified sections for pSMAD2 and pSMAD5 analysis (Magnification, 400×). Data are represented as median±S.D. Statistical analysis, Student's T-test, n.s. non-significant; ****p<0.0001.

Test [2] deals with mammary epithelial cells. Nature of the test: Mammary outgrowth formation on transplantation (ELDA). The format is in vivo, mouse. The following applies: primary transplantation. The source says: FIGS. 10A-10G. Mammary epithelial cells rely on LEFTY1 for their long-term proliferation potential. FIG. 10A is a schematic representation of the procedure used to inject control, LEFTY1- or BMP7-expressing mammary fibroblasts into the proximity of the mammary gland of 14-18 weeks old NSG female mice. Two to three weeks later, the mammary epithelial cells were isolated and injected in a limiting dilution fashion into weaning age […] mice to assess their engraftment potential. […] The next day, the transduced cells were injected in the cleared fat-pads of weaning age mice in order to test their exogenous mammary epithelial repopulation ability. […]
FIGS. 11A-11F. […] The number of positive outgrowths from the total of transplanted glands are shown, as well as the frequency and 95% CI of engrafting cells calculated by ELDA. […] The frequency and 95% CI was calculated using extreme limiting dilution analysis (ELDA). […]
Alteration of signaling pathways such as Wnt, Hedgehog and Notch results in branching phenotypes that may be linked to the frequency of cells that can be transplanted and originate mammary ducts in recipient mice (Lu & Werb, Science 322, 1506-1509 (2008)). We transplanted endogenous mammary epithelial cells that had been exposed to LEFTY1 or BMP7 for ^˜15 days in vivo and assessed ductal outgrowth formation upon transplantation into secondary recipients (FIG. 10A). […]

The subject of test [3] is pSMAD5. The experiment in a line: Immunofluorescent pSMAD5 positive cells in mammary glands exposed to ligand-secreting fibroblasts. The format is in vivo, mouse. As for the experimental part:
as §1
FIGS. 5A-5H. LEFTY1 inhibits pSMAD2 and pSMAD5 in the basal mammary epithelial cells. […] KRT8 was used to stain the luminal cells and SMA for basal cells (Magnification 400×). […] Gapdh was used as a housekeeping gene. […] Ten different fields were counted per condition (n=3). Data are represented as median±S.D. Statistical analysis, (a and b) Student's T-test, * p<0.05; (h) One-way ANOVA with Dunnet's adjustment, ****p<0.0001.

For test [4], the system named is pSMAD5. The experiment in a line: pSMAD5 immunofluorescence in MDA-MB-231. Format: cell-based. Particulars: 50 ng/mL BMP7 30 minutes, absence or presence of LEFTY 200 ng/mL. The procedure:
FIGS. 20 and 21 are data from an experiment in which the breast cancer cell line MDA-MB-231 was plated and serum starved for 24 hours. 50 ng/mL BMP7 was added for 30 minutes to activate pSMAD5, either in the absence or presence of exogenous LEFTY (200 ng/mL). LEFTY-BMPR2 interaction, BMP7-BMPR2 interaction (as visualized by Proximity Ligation Assay, red), pSMAD5 status (As visualized by Immunofluorescence, green) were monitored and captured.
Breast cancer cell line MDA-MB-231 was plated and serum starved for 24 hours. 50 ng/mL BMP7 was added for 30 minutes to activate pSMAD5, either in the absence or presence of exogenous LEFTY (200 ng/mL) and LEFTY Antagonist (sc7408p) increasing in dose from 1x to 256x (x=25 ng/mL). LEFTY-BMPR2 interaction, BMP7-BMPR2 interaction (as visualized by Proximity Ligation Assay, red), pSMAD5 status (As visualized by Immunofluorescence, green) were monitored and captured.

B1: LEFTY1: left-right determination factor 1, secreted TGF-β superfamily protein; generic LEFTY may mean LEFTY1 or LEFTY2 (protein, UniProt O75610 77-366, looked up)
Left-right determination …: RFSQSFREVAGRFLALEASTHLLVFGMEQRLPPNSELVQAVLRLFQEPVPKAALHRHGRLSPRSARARVTVEWLRVRDDGSNRTSLIDSRLVSVHESGWKAFDVTEAVNFWQQLSRPRQPLLLQVSVQREHLGPLASGAHKLVRFASQGAPAGLGEPQLELHTLDLGDYGAQGDCDPEAPMTEGTRCCRQEMYIDLQGMKWAENWVLEPPGFLAYECVGTCRQPPEALAFKWPFLGPRQCIASETDSLPMIVSIKEGGRTRPQVVSLPNMRVQKCSCASDGALVPRRLQP
As to B1, the pSMAD2 expression result in test [1] was “significant decrease”. Further, the “frequency of ductal outgrowths” value in test [2] is “significantly increased”. Besides, in test [3], the “pSMAD5 in basal cells” value is “significant decrease” and the “pSMAD5 protein levels in luminal cells” value is recorded as “significant decrease”. For the same molecule, the pSMAD5 status entry in test [4] is listed as “reduces”.

B2: BMP7: bone morphogenetic protein 7, BMPR2 ligand (protein)
chain: STGSKQRSQNRSKTPKNQEALRMANVAENSSSDQRQACKKHELYVSFRDLGWQDWIIAPEGYAAYYCEGECAFPLNSYMNATNHAIVQTLVHFINPETVPKPCCAPTQLNAISVLYFDDSSNVILKKYRNMVVRACGCH
With B2, in test [1], the pSMAD2 expression entry was “no effect”. In addition, the “frequency of ductal outgrowths” value in test [2] is on record as “did not affect”. For the same molecule, in test [3], the “pSMAD5 in basal cells” value is “significant increase” and the “pSMAD5 protein levels in luminal cells” value was “no effect”. In addition, the pSMAD5 status result in test [4] was “activates pSMAD5”.
